Data taken from article PMC3498451.

Target: HIV-1 Gag-glutathione-S-transferase (GST) fusion protein, wild type (HIV-1)
Test: cross-linking + pull-down

B1: 2',3'-cyclic-nucleotide 3'-phosphodiesterase (CNP), human, wild type (natural protein)
chain: MNRGFSRKSHTFLPKIFFRKMSSSGAKDKPELQFPFLQDEDTVATLLECKTLFILRGLPGSGKSTLARVIVDKYRDGTKMVSADAYKITPGARGAFSEEYKRLDEDLAAYCRRRDIRILVLDDTNHERERLEQLFEMADQYQYQVVLVEPKTAWRLDCAQLKEKNQWQLSADDLKKLKPGLEKDFLPLYFGWFLTKKSSETLRKAGQVFLEELGNHKAFKKELRQFVPGDEPREKMDLVTYFGKRPPGVLHCTTKFCDYGKAPGAEEYAQQDVLKKSYSKAFTLTISALFVTPKTTGARVELSEQQLQLWPSDVDKLSPTDNLPRGSRAHITLGCAADVEAVQTGLDLLEILRQEKGGSRGEEVGELSRGKLYSLGNGRWMLTLAKNMEVRAIFTGYYGKGKPVPTQGSRKGGALQSCTII
In the case of B1, the stoichiometry N is reported as 1 CNP:Gag-GST.
